The record followed here is the array DNA melting data of Ke et al..

By Tm is commonly meant the temperature at the midpoint of the melting transition.

This data set is described as follows: melting temperature; melt of duplexes. Particulars: sodium 0.0675 M; strand 1 µM.
“CGACGTGCGCCATGTGCTG+CAGCACATGACGCACGTCG (((((((((.(((((((((+))))))))).)))))))))”: the Tm turned out to be 59.3 °C.
“CGACGTGCATAATGTGCTG+CAGCACATCTTGCACGTCG (((((((((..((((((((+))))))))..)))))))))”: the melting temperature (Tm) came out at 50.8 °C.
To “CGACGTGCCTCATGTGCTG+CAGCACATAAGGCACGTCG ((((((((((.((((((((+)))))))).))))))))))” belongs 56.2 °C; to “CGACGTGCGTTATGTGCTG+CAGCACATGAAGCACGTCG ((((((((.(.((((((((+)))))))).).))))))))”, 54.8 °C; to “CGACGTGCGGTATGTGCTG+CAGCACATGCTGCACGTCG ((((((((.(.((((((((+)))))))).).))))))))”, 56.1 °C.
Next, “CGACGTGCGGGATGTGCTG+CAGCACATCTGGCACGTCG ((((((((..(((((((((+)))))))))..))))))))”: 57.1 °C; “CGACGTGCAGCATGTGCTG+CAGCACATACAGCACGTCG ((((((((.(.((((((((+)))))))).).))))))))”: 48.3 °C.
Next, “CGACGTGCCTCATGTGCTG+CAGCACATTCGGCACGTCG (((((((((..((((((((+))))))))..)))))))))”: 53 °C; “CGACGTGCTTCATGTGCTG+CAGCACATTGCGCACGTCG ((((((((...((((((((+))))))))...))))))))”: 46.5 °C.
Consider “CGACGTGCGATATGTGCTG+CAGCACATGCTGCACGTCG ((((((((...((((((((+))))))))...))))))))”, for which the melting temperature (Tm) was found to be 49.8 °C.
To “CGACGTGCCATATGTGCTG+CAGCACATCAGGCACGTCG (((((((((..((((((((+))))))))..)))))))))” belongs 53.5 °C; to “CGACGTGCGATATGTGCTG+CAGCACATGCCGCACGTCG (((((((((..((((((((+))))))))..)))))))))”, 54.8 °C; to “CGACGTGCGTGATGTGCTG+CAGCACATAGAGCACGTCG ((((((((...((((((((+))))))))...))))))))”, 53.1 °C.
To “CGACGTGCCAAATGTGCTG+CAGCACATGAAGCACGTCG ((((((((...((((((((+))))))))...))))))))” belongs 51.2 °C.
Next, “CGACGTGCAGGATGTGCTG+CAGCACATGGCGCACGTCG ((((((((...((((((((+))))))))...))))))))”: 49.9 °C.
Take “CGACGTGCTGAATGTGCTG+CAGCACATGCAGCACGTCG ((((((((((.((((((((+)))))))).))))))))))”: the Tm came to 59.7 °C.
Regarding “CGACGTGCACCATGTGCTG+CAGCACATTTGGCACGTCG ((((((((...((((((((+))))))))...))))))))”, the Tm is 44.6 °C.
“CGACGTGCCAGATGTGCTG+CAGCACATCGCGCACGTCG ((((((((..(((((((((+)))))))))..))))))))”: the Tm stood at 55.4 °C.
Next, “CGACGTGCTCAATGTGCTG+CAGCACATTTAGCACGTCG (((((((((.(((((((((+))))))))).)))))))))”: 54.7 °C.
For the substance “CGACGTGCTCTATGTGCTG+CAGCACATGGCGCACGTCG ((((((((.(.((((((((+)))))))).).))))))))”, the midpoint of thermal melting (Tm) was 51.6 °C.
With “CGACGTGCAACATGTGCTG+CAGCACATAGAGCACGTCG ((((((((...((((((((+))))))))...))))))))”, the Tm amounted to 48.9 °C.
To “CGACGTGCCCAATGTGCTG+CAGCACATAGTGCACGTCG ((((((((.(.((((((((+)))))))).).))))))))” belongs 46.2 °C; to “CGACGTGCTCTATGTGCTG+CAGCACATCTAGCACGTCG (((((((((..((((((((+))))))))..)))))))))”, 50.6 °C.
With “CGACGTGCAGTATGTGCTG+CAGCACATCGCGCACGTCG ((((((((...((((((((+))))))))...))))))))”, the midpoint of thermal melting (Tm) was 49.9 °C.
To “CGACGTGCGGCATGTGCTG+CAGCACATCTCGCACGTCG (((((((((..((((((((+))))))))..)))))))))” belongs 53.4 °C; to “CGACGTGCTATATGTGCTG+CAGCACATGAGGCACGTCG ((((((((...((((((((+))))))))...))))))))”, 52 °C; to “CGACGTGCAGGATGTGCTG+CAGCACATCAGGCACGTCG ((((((((..(((((((((+)))))))))..))))))))”, 56.6 °C.
Next, “CGACGTGCGCTATGTGCTG+CAGCACATTCCGCACGTCG (((((((((..((((((((+))))))))..)))))))))”: 52.1 °C; “CGACGTGCCCGATGTGCTG+CAGCACATCTCGCACGTCG ((((((((..(((((((((+)))))))))..))))))))”: 51.6 °C.
Turning to “CGACGTGCTAAATGTGCTG+CAGCACATGCAGCACGTCG (((((((((..((((((((+))))))))..)))))))))”, the melting temperature (Tm) was 55.2 °C.
Regarding “CGACGTGCTACATGTGCTG+CAGCACATTACGCACGTCG ((((((((...((((((((+))))))))...))))))))”, the Tm came out at 48.7 °C.
To “CGACGTGCATGATGTGCTG+CAGCACATTGTGCACGTCG (((((((((..((((((((+))))))))..)))))))))” belongs 53.2 °C.
To “CGACGTGCCGGATGTGCTG+CAGCACATGGTGCACGTCG ((((((((...((((((((+))))))))...))))))))” belongs 47 °C.
To “CGACGTGCCGAATGTGCTG+CAGCACATCGAGCACGTCG ((((((((...((((((((+))))))))...))))))))” belongs 55.3 °C; to “CGACGTGCAGTATGTGCTG+CAGCACATGCAGCACGTCG ((((((((.(.((((((((+)))))))).).))))))))”, 54.7 °C.
As for “CGACGTGCCCGATGTGCTG+CAGCACATTTCGCACGTCG ((((((((...((((((((+))))))))...))))))))”, the Tm is 47.6 °C.
Next, “CGACGTGCTTGATGTGCTG+CAGCACATCGCGCACGTCG ((((((((..(((((((((+)))))))))..))))))))”: 54.3 °C; “CGACGTGCTGCATGTGCTG+CAGCACATGCTGCACGTCG ((((((((.((((((((((+)))))))))).))))))))”: 61.2 °C; “CGACGTGCATCATGTGCTG+CAGCACATCTCGCACGTCG ((((((((...((((((((+))))))))...))))))))”: 46.5 °C.
Consider “CGACGTGCCCCATGTGCTG+CAGCACATTTTGCACGTCG ((((((((...((((((((+))))))))...))))))))”, for which the Tm is 46.6 °C.
To “CGACGTGCTCAATGTGCTG+CAGCACATTCGGCACGTCG ((((((((..(((((((((+)))))))))..))))))))” belongs 51.2 °C; to “CGACGTGCCCTATGTGCTG+CAGCACATACAGCACGTCG ((((((((..(((((((((+)))))))))..))))))))”, 48.8 °C; to “CGACGTGCCGTATGTGCTG+CAGCACATGGGGCACGTCG (((((((((..((((((((+))))))))..)))))))))”, 57.1 °C.
To “CGACGTGCCAGATGTGCTG+CAGCACATATCGCACGTCG ((((((((.(.((((((((+)))))))).).))))))))” belongs 49.1 °C; to “CGACGTGCGTTATGTGCTG+CAGCACATGAGGCACGTCG ((((((((.(.((((((((+)))))))).).))))))))”, 54.1 °C.
To “CGACGTGCTAAATGTGCTG+CAGCACATGGCGCACGTCG ((((((((...((((((((+))))))))...))))))))” belongs 51.2 °C; to “CGACGTGCAATATGTGCTG+CAGCACATATTGCACGTCG (((((((((((((((((((+)))))))))))))))))))”, 61.2 °C; to “CGACGTGCTAAATGTGCTG+CAGCACATAACGCACGTCG ((((((((...((((((((+))))))))...))))))))”, 50 °C.
For the substance “CGACGTGCCGCATGTGCTG+CAGCACATCCCGCACGTCG ((((((((.(.((((((((+)))))))).).))))))))”, the midpoint of thermal melting (Tm) stood at 48.8 °C.
To “CGACGTGCAAGATGTGCTG+CAGCACATCTAGCACGTCG ((((((((.((((((((((+)))))))))).))))))))” belongs 57.9 °C.
“CGACGTGCAGTATGTGCTG+CAGCACATTCAGCACGTCG ((((((((.(.((((((((+)))))))).).))))))))”: the Tm came to 51.1 °C.
Next, “CGACGTGCTTAATGTGCTG+CAGCACATTTGGCACGTCG ((((((((..(((((((((+)))))))))..))))))))”: 53.4 °C.
To “CGACGTGCTGGATGTGCTG+CAGCACATCTAGCACGTCG (((((((((.(((((((((+))))))))).)))))))))” belongs 60 °C; to “CGACGTGCCCAATGTGCTG+CAGCACATGGGGCACGTCG ((((((((((.((((((((+)))))))).))))))))))”, 61.3 °C.
Consider “CGACGTGCACCATGTGCTG+CAGCACATCATGCACGTCG (((((((((..((((((((+))))))))..)))))))))”, for which the midpoint of thermal melting (Tm) came to 45.6 °C.
Next, “CGACGTGCGTTATGTGCTG+CAGCACATACAGCACGTCG ((((((((..(((((((((+)))))))))..))))))))”: 53.3 °C; “CGACGTGCTGGATGTGCTG+CAGCACATTCCGCACGTCG ((((((((.(.((((((((+)))))))).).))))))))”: 53.9 °C; “CGACGTGCGTCATGTGCTG+CAGCACATGGCGCACGTCG (((((((((.(((((((((+))))))))).)))))))))”: 63.5 °C.
Next, “CGACGTGCGACATGTGCTG+CAGCACATGGCGCACGTCG (((((((((.(((((((((+))))))))).)))))))))”: 65.2 °C; “CGACGTGCACGATGTGCTG+CAGCACATATCGCACGTCG ((((((((...((((((((+))))))))...))))))))”: 44.2 °C.
To “CGACGTGCTTTATGTGCTG+CAGCACATAAAGCACGTCG (((((((((((((((((((+)))))))))))))))))))” belongs 61 °C.
As to “CGACGTGCAGTATGTGCTG+CAGCACATCCTGCACGTCG ((((((((((.((((((((+)))))))).))))))))))”, the midpoint of thermal melting (Tm) worked out at 56.3 °C.
Next, “CGACGTGCTATATGTGCTG+CAGCACATATAGCACGTCG (((((((((((((((((((+)))))))))))))))))))”: 61.3 °C; “CGACGTGCTCTATGTGCTG+CAGCACATTTTGCACGTCG ((((((((...((((((((+))))))))...))))))))”: 49 °C; “CGACGTGCGCCATGTGCTG+CAGCACATAGCGCACGTCG ((((((((((.((((((((+)))))))).))))))))))”: 58.9 °C.
Next, “CGACGTGCTAGATGTGCTG+CAGCACATCGGGCACGTCG ((((((((..(((((((((+)))))))))..))))))))”: 57 °C.
